Measurements published in PMC12751051, “Penaeus monodon fibrinogen-related lectin interacts with lipopolysaccharide and β-1,3-glucan binding protein to activate the innate immune system” (Biochemical Journal, 2025).

How the values were obtained:
[1] = molecular target: T1, rPmFREP CRD (Penaeus monodon, UniProt A0A068LKH5); experiment: GlcNAc-resin affinity column, elution with free GlcNAc, anti-His Western blot; assay type: binding; conditions: 8 ml GlcNAc resin; eluted with 100 mM GlcNAc; proteins loaded at 5 µM each; immobilised ligand
T1 construct: XEEL signal peptide, His6 tag; insect cells; lacks oligomeric structure

[2] = molecular target: Penaeus monodon lipopolysaccharide and β-1,3-glucan binding protein (endogenous, hemolymph) (Penaeus monodon (endogenous in shrimp hemolymph))
[3] = molecular target: recombinant Penaeus monodon lipopolysaccharide and β-1,3-glucan binding protein (Penaeus monodon) (UniProt H9MER4); experiment: BLI; BLItz; rPmLGBP immobilised on Octet SA biosensor activated with EDC and NHS; analytes in 20 mM HEPES pH 7.5, 150 mM NaCl, 10 mM CaCl2; association 4 minutes, dissociation 4 minutes; curves globally fitted
[4] = molecular target: T2, recombinant Penaeus monodon lipopolysaccharide and β-1,3-glucan binding protein (Penaeus monodon, UniProt H9MER4 1-366); experiment: as above; conditions: both partners purified
T2 construct: The construct holds the protein's own N-terminus (signal peptide); also called rPmLGBP; PmLGBP; source: insect cell expression system (Bac-to-Bac baculovirus), purified (Ni-NTA); not shown: His6, C-terminal, kept
T2 sequence (looked up): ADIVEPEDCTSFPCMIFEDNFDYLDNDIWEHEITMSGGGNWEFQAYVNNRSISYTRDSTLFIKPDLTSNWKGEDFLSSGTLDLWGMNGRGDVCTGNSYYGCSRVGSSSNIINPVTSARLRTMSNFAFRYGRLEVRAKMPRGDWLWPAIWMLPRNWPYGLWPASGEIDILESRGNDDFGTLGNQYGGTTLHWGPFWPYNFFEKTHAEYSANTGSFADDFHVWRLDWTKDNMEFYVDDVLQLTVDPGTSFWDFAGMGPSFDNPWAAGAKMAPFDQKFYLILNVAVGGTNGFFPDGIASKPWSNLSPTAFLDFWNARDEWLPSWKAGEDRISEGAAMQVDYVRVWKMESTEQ

[5] = molecular target: T2, recombinant Penaeus monodon …; experiment: curdlan binding assay; rPmFREP and rPmLGBP, 0.1 µM each, incubated with 1 mg curdlan in 20 mM HEPES pH 7.5, 150 mM NaCl, 10 mM CaCl2, 4°C, 16 hours; curdlan collected by centrifugation, washed three times, eluted with 2% SDS; anti-His Western blot, densitometry of rPmFREP; conditions: both partners purified

For `CC(=O)N[C@H]1C(O)O[C@H](CO)[C@@H](O)[C@@H]1O` (stereo partly drawn) [N-acetylglucosamine], the “GlcNAc-resin affinity column, elution with free GlcNAc, anti-His Western blot” value [1] was “rPmFREP and rPmFREP CRD were bound to the GlcNAc column”.

With rPmFREP CC-MBP (domain or fragment) the PO activity in hemolymph of shrimp injected with the recombinant protein (1 nmol/g shrimp) and then infected with VP AHPND, against rMBP-injected control shrimp [2] was 3 fold and the Kd [3] was 220 nM.

B1: recombinant Penaeus monodon fibrinogen-related protein (natural protein, UniProt A0A068LKH5 1-312, looked up)
chain: TTERTDTAEPQQPGGCHALPSLLQSAGSSLTCIAASLINCQANENDQLSIAQDLRDTMSEVRRAIVDAERRRRRPRHCRDLQLDGDSESGVRRVFPFRSSPDAAATVYCDQETDGGGWTVFQRRLKLPVREDFYRTWVEYELGFGHMDGGEFWLGLDLVHRLTSTGLQEMRIDLTDYEDNAKWAKYGVFHLGDASTKYRLKVGRYNGTAGDGFGSGRHDGHPFTTHDNDNDGDGANCAARYRGAWWYDKCHISNLNGFPYEGDHESYADGIEWQPWRGYHYSLKTTTMMIRPAF
notes: also called rPmFREP; PmFREP; source: insect cell expression system (baculovirus), purified (Ni-NTA)
In the case of B1, the PO activity in hemolymph of shrimp injected with the recombinant protein (1 nmol/g shrimp) and then infected with VP AHPND, against rMBP-injected control shrimp [2] is reported as 3.4 fold, the Kd [4] is reported as 340 nM and the “fold more rPmFREP in the curdlan elution fraction with rPmLGBP than without it” value [5] is reported as about 3.1 fold.
